According to the nanobody polyreactivity screen of Harvey et al. (2022):

Assay: yeast display, Sf9 membrane polyspecificity reagent, FACS + sequencing; frameworks hold sequencing errors
Method in brief: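 Sorting gates, low and high (top ~1%), were placed on anti-HA fluorescence to track expression and on streptavidin fluorescence to track reagent binding. A clone's polyreactivity label is taken from the gate it came out of. The reagent was 10% biotinylated, detergent-solubilized Sf9 membrane, applied for 1 hour at 4 °C to galactose-induced yeast display cells.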

QVQLVASGGGLVQAGGSLRLSCAASGRIFDAYAMGWYRQAPGKERELVAAIDFSAGSTYYADSVKGRFTISRDNAQNTVYLQMNSLKPEDTAVYYCATRLGVLYDCWGQGTQVTVSS
polyreactivity (PSR sort gate): low polyreactivity

QVQHVESGGGLVQAGGSLRLSCAASGLTFSSYAMGWYRQAPGKERELVAAISLSGGRTYYADSVKGRFTISRDNAKNTVYLQMNSLKPEDTAVYYCAADPYANWCPYPAWYYGAYNYWGQGTQVTVSS
polyreactivity (PSR sort gate): high polyreactivity

QVQLVESGGGLVQAGGSLRLICAASGFTFVANAMGWYRPAPGKERELVAVIDWDEGSTYYADSVKGRFTISRDNAKNTVYLQMNSLKPEETAVYYCNADGYSPDRYDYYYRYYYWGQGTQVTVSS
polyreactivity (PSR sort gate): low polyreactivity

QVQLVESGGGLVQAGGSLRLTCAASGSIFNRYSMGWYRQATGKERELVAVIRWRDGSTYYADSVKGRFTISRDNEKNTVYLQMNSLKPEDTAVYYCAAVYWGEEYEYWGQGTQVTVSS
polyreactivity (PSR sort gate): low polyreactivity

QVQLVESGGGLVQAGGSLRLSSAASGFTYYFYAMGWYRQAPGKERELVAGISTSGTSTYYADSVKGRFTISRDNAKNTVYFQMNRLKPEDTAVSYCAKRGDAIVPTSSKGNYWGQGTQVTVSS
polyreactivity (PSR sort gate): low polyreactivity

QVQLVESGGCLVQAGGSLRLICAASGIIFWGYFMGWYRQAPAKERELVAAISRGGRTYYADSVKGRFTISRDNAKNTVYLQMNSLKPEDTAVDYCAARWGRSYLPQPFQFEYDYWGQGTQVTVSS
polyreactivity (PSR sort gate): high polyreactivity

QVQLVESGGGLVQAGGSLRLSCAASGRIFLRNDMGWYRQAPGKVRELVAGISSDGSTYYADSVKGRFTISRDNAKNTVYLQMTSLKPEDTAVYYCNAEDTPGAGDGNWGQGTQVTVSS
polyreactivity (PSR sort gate): low polyreactivity

QVQLVESGGGLVQAGGSLRLSCAASGGIFRGNAMGWYRQAPGKERELVAAISSSGGSTYYADSVKVRFTISRDNSKYTVYLEMYSLKPEDTAVYYCAAYAGSFYYWGQGTQVTVSS
polyreactivity (PSR sort gate): high polyreactivity

QVQLVESGGGLVQAGGSLRLSCAASGNTFKGYAMGWYRQAPGKERELVAAISWSGSSTYYADSVKGRFTISRDNAKNTVYVQMISLKPEDTAVYYCNRKYLGRYASVYGYGYWGQGTQVTVSS
polyreactivity (PSR sort gate): high polyreactivity

QVQLVESGGGLVQAGGSLRLSCAASGRIFKFNAMGWYRQAPGKERELVAATWSGGRTSYADSVKGRFTISRDNAKNTVYLQMNSLKPEDTAVYYCNAADWIDVQYDYWGQGNQVTVSS
polyreactivity (PSR sort gate): low polyreactivity

QVQLVESGGGLVQAGGSLRLSCAASGGTFGHYTMGWYRQAPGKERELVAAISGSGGTTYYADSVKGRFTISRDNAKNTVYLQINSLKPEDTAVYFCNKGIPTRSVRSYDYWGQGTKVTVSS
polyreactivity (PSR sort gate): high polyreactivity

QVQLVESGGGLVQAGGSLRLSCAASGLTFGTNAMGWYRQAPGKERELVAAISTSSGSTYYADSVKGRFTISRDNAKNTVYLQMNSLKPEDTAVYYCAAVTVTKLSYYRYYYWGQGTQVTVSS
polyreactivity (PSR sort gate): low polyreactivity

QVQLVESGGGLVQAGGSLRLSCAASGSNFLAYAMGWYRQAPGKERELVADISWGGGSTSYADSVKGRFTISRDNAKNTVYLQMNSLKPEDTAVYYCNKGSFSKRRDYYWGQGTQVTVSS
polyreactivity (PSR sort gate): high polyreactivity

QVQLVESGGRLVQAGASLRLSCAASGRILYWNTMGWYRQAPGKERELVASITQNVGSTYYADSVKGRFTISRDNAKNTVYLQMISMIPEDTAVYYCAAKRLSWHRYGYWGQGTQVTVSS
polyreactivity (PSR sort gate): low polyreactivity

QVQLVESGGGLVQAGGSLRLSCDASVSIFQPYAMGWYRQAPGKERELVAAISSSGGSTTYADSVKGRFTISRDNAKNTVYLQMKSLKPEDTAVYYCAADSADDMGYWGQGTQVTVSS
polyreactivity (PSR sort gate): low polyreactivity

QVQLVESGGGLVQAGGSLRLSCAASGFIFYKNAMGWYRQAPGKERELVAAINFSTGRTYYADSVKGRFTISRDNAKNTVYLQMNSLKPEDTAVYDCATKSANPRKYYYWGQVTQVTVSS
polyreactivity (PSR sort gate): high polyreactivity

QVQLVESGGGLVQAGGSLRLSCAASGSTFAANAMGWDRQAPGKERELVAAITSGGGSTYYADSVKGRFTISRDNAKNTVYLQMNSLKPEDTAVYYCAALQSHGVDYDYWGQGSQVTVSS
polyreactivity (PSR sort gate): low polyreactivity

QVQLVESGGGLVKAGCSLRLSCAASGRTFGTYAMGWYRQAPGKERELVAAISSGGSTYADSVKGRFTISRDNAMNTVYLQMKSLKPEDTAVYYCTTRYPMGGTYTRYPLKGDYWGQGTQVTVSS
polyreactivity (PSR sort gate): high polyreactivity

QVQLVESGGGLVQAGGRLRLSCAASGSIFQKNAMGWYRQAPGKERELVAVITRGGTSTYYADSVKGRFTISRDNAKNTVYLQMNSLKTEDTAVYYCAAKADKRLDYWGQGTQVTVSS
polyreactivity (PSR sort gate): low polyreactivity

QVQLVESGGGLVQAGGSLRLSCAASGSIFGVYAIGWYRQAPGKERELVATISWSAGSTYYADSVKGRFTISRDNAKNTVYLQMNSLKPEDTAVYYCAAGVRWLGLYDLFTFDYWGQGTQVTVSS
polyreactivity (PSR sort gate): low polyreactivity

QVQLVESGGALVQAGGRLRLSCAASGSILVTNDMGLYRQAPGKDRELEAAICWSGGSTYYADSVKGRFTISRDNAKNSVYLQMNSLKPEDTAVYYCAAGLGFLFARQALEFDYWGQGTKVTVSS
polyreactivity (PSR sort gate): low polyreactivity

QVQLVESGVGLVQAGGSLRLSCAASGRIFRRYTMGWYRQPPGKERELVAAISASGGNTYYADSVKGRFTISRDNAKNTVYLQMNSLKPEDTAVYYCARRWRPWTQDGDDYWGQGTQVTVSS
polyreactivity (PSR sort gate): high polyreactivity
